In publication PMC7547085, “Specific and direct modulation of the interaction between adhesion GPCR GPR56/ADGRG1 and tissue transglutaminase 2 using synthetic ligands” (Scientific Reports, 2020):

B1: mouse full-length GPR56 (GPR56 FL), wild type, on HEK293T cells [mouse] / mouse tissue transglutaminase 2 C-terminal D3D4 domains (mTG2 D3D4) [modified: biotin on the AVI-tag; biotin on the AVI-tag] [mouse] (parent)
chain 1: TGVAMRIRVGDSMSMGNDFDVFAHIGNDTSETRECRLLLCARTVSYNGVLGPECGTEDINLTLDPYSENSIPLRILYEKYSGCLTESNLIKVRGLLIEPAANSYLLAERDLYLENPEIKIRVLGEPKQNRKLVAEVSLKNPLSDPLYDCIFTVEGAGLTKEQKSVEVSDPVPAGDLVKARVDLFPTDIGLHKLVVNFQCDKLKSVKGYRNVIIGPA
chain 2: GSPREDFRFCGQRNQTQQSTLHYDQSSEPHIFVWNTEETLTIRAPFLAAPDIPRFFPEPRGLYHFCLYWSRHTGRLHLRYGKHDYLLSSQASRLLCFQKQEQSLKQGAPLIATSVSSWQIPQNTSLPGAPSFIFSFHNAPHKVSHNASVDMCDLKKELQQLSRYLQHPQKAAKRPTAAFISQQLQSLESKLTSVSFLGDTLSFEEDRVNATVWKLPPTAGLEDLHIHSQKEEEQSEVQAYSLLLPRAVFQQTRGRRRDDAKRLLVVDFSSQALFQDKNSSQVLGEKVLGIVVQNTKVTNLSDPVVLTFQHQPQPKNVTLQCVFWVEDPASSSTGSWSSAGCETVSRDTQTSCLCNHLTYFAVLMVSSTEVEATHKHYLTLLSYVGCVISALACVFTIAAYLCSRRKSRDYTIKVHMNLLSAVFLLDVSFLLSEPVALTGSEAACRTSAMFLHFSLLACLSWMGLEGYNLYRLVVEVFGTYVPGYLLKLSIVGWGFPVFLVTLVALVDVNNYGPIILAVRRTPERVTYPSMCWIRDSLVSYVTNLGLFSLVFLFNLAMLATMVVQILRLRPHSQNWPHVLTLLGLSLVLGLPWALVFFSFASGTFQLVILYLFSIITSFQGFLIFLWYWSMRFQAQGGPSPLKNNSDSAKLPISSGSTSSSRI

Variants of: B1
Test: flow cytometry on cells
Details: with mouse tissue transglutaminase 2 C-terminal D3D4 domains (mTG2 D3D4) [modified: biotin on the AVI-tag, 5 nM TG2 D3D4 (tetramerized), GPR56 FL constructs expressed on HEK293T cells, n = 3, parent: 1, read off a plot

Variant | ratio to parent
chain 2 H64A Y68A S125A | 4.1
chain 2 L62D | 0.21
chain 2 H64A | 0.64
chain 2 H64A S125A | 6.6
chain 2 L62D S125A | 0.33
chain 2 Y68A | 0.33
chain 2 H64A Y68A | 0.22
chain 2 S125A | 8.7
chain 2 H64A Y68A R79D | 0.2
